Target: α-synuclein 1–140 tagged with the C-terminal Venus fragment (UniProt P37840)
Test: split reporter

Sequence of VAMP2 tagged with the N-terminal Venus fragment (natural protein) (P63027 2-116): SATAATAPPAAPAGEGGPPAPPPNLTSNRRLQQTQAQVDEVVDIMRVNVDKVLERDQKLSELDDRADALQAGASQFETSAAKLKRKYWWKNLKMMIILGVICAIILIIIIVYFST

Venus complementation fluorescence at boutons relative to α-syn 1–140: 1
Venus complementation fluorescence relative to α-syn 1–140: 1
Substance: VAMP2 tagged with the N-terminal Venus fragment (natural protein)

— paper PMC6561242
